{"source": "patent US20240335555A1", "about": "(BIOHAVEN THERAPEUTICS, published 2024)", "binders": {"B1": {"name": "I-26 (other)", "peptide": "DKEEILNKIYEIMRLLDELGNAEASMRVSDLILEFMKKGDERLLEEAERLLEEVERGGSEQKLISEEDLGSGGGGSLPET", "notes": "also called MATE agent I-26"}, "B2": {"name": "I-24 (designed binder)", "chain": "DKEEILNKIYEIMRLLDELGNAEASMRVSDLILEFMKKGDERLLEEAERLLEEVERGGSEQKLISEEDLGSGGGGSLPETGGGGSGGSSHHHHHHHHHH", "notes": "also called P227; LCB1"}, "B3": {"name": "I-27 (other)", "peptide": "NDDELLMLVTDLVAEALLFAKDEEIKKRVFTLFELADKAYKNNDRDTLSKVVSELKELLERLQSGGSEQKLISEEDLGSGGGGSLPET", "notes": "also called MATE agent I-27"}}, "key": {"[1]": {"target": "T1, SARS-CoV2 Spike-GFP protein on 293T cells (SARS-CoV-2, UniProt P0DTC2 14-1273)", "T1 construct": "whole, on cells", "test": "flow cytometry on 293T cells expressing Spike-GFP, % gated read-out"}, "[2]": {"target": "T2, SARS-CoV-2 (COVID-19) S Protein RBD, His Tag (SARS-CoV-2, UniProt P0DTC2 319-537)", "test": "BLI (Octet), LCB1 binding to anchored Spike RBD"}, "[3]": {"target": "T2, SARS-CoV-2 (COVID-19) S Protein RBD, …", "test": "ELISA, Spike RBD anchored on plate"}}}
{"binder": "B1", "values": [{"measurement": "IC50", "setting": "[1]", "value": 1.3, "unit": "nM"}]}
{"binder": "B2", "values": [{"measurement": "binding result", "setting": "[2]", "value": "no binding"}]}
{"binder": "B3", "values": [{"measurement": "EC50", "setting": "[3]", "value": 4, "unit": "nM"}]}
